B1: CBL-interacting serine/threonine-protein kinase 24 (Arabidopsis thaliana (Mouse-ear cress)), Q9LDI3 (parent)
chain: MTKKMRRVGKYEVGRTIGEGTFAKVKFARNTDTGDNVAIKIMAKSTILKNRMVDQIKREISIMKIVRHPNIVRLYEVLASPSKIYIVLEFVTGGELFDRIVHKGRLEESESRKYFQQLVDAVAHCHCKGVYHRDLKPENLLLDTNGNLKVSDFGLSALPQEGVELLRTTCGTPNYVAPEVLSGQGYDGSAADIWSCGVILFVILAGYLPFSETDLPGLYRKINAAEFSCPPWFSAEVKFLIHRILDPNPKTRIQIQGIKKDPWFRLNYVPIRAREEEEVNLDDIRAVFDGIEGSYVAENVERNDEGPLMMNAFEMITLSQGLNLSALFDRRQDFVKRQTRFVSRREPSEIIANIEAVANSMGFKSHTRNFKTRLEGLSSIKAGQLAVVIEIYEVAPSLFMVDVRKAAGETLEYHKFYKKLCSKLENIIWRATEGIPKSEILRTITF
partner: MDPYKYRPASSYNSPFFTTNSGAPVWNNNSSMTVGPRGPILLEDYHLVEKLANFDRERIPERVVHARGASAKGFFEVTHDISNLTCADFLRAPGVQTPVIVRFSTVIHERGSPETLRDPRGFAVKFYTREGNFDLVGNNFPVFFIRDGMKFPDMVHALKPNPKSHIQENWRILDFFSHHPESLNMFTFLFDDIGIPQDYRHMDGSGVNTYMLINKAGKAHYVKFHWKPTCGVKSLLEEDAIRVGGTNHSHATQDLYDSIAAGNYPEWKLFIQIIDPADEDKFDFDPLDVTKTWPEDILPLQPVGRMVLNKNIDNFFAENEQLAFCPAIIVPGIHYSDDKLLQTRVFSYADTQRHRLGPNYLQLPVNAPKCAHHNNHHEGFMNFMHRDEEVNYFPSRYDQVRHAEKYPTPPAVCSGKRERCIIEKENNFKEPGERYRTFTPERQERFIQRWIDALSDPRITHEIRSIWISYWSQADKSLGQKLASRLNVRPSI

Variants of: B1
Settings: with cata2_arath CAT2, P25819

Row | effect of a mutation on the interaction | Variant
1 | increasing interaction | MTKKMRRVGKYEVGRTIGEGTFAKVKFARNTDTGDNVAINIMAKSTILKNRMVDQIKREISIMKIVRHPNIVRLYEVLASPSKIYIVLEFVTGGELFDRIVHKGRLEESESRKYFQQLVDAVAHCHCKGVYHRDLKPENLLLDTNGNLKVSDFGLSALPQEGVELLRTTCGTPNYVAPEVLSGQGYDGSAADIWSCGVILFVILAGYLPFSETDLPGLYRKINAAEFSCPPWFSAEVKFLIHRILDPNPKTRIQIQGIKKDPWFRLNYVPIRAREEEEVNLDDIRAVFDGIEGSYVAENVERNDEGPLMMNAFEMITLSQGLNLSALFDRRQDFVKRQTRFVSRREPSEIIANIEAVANSMGFKSHTRNFKTRLEGLSSIKAGQLAVVIEIYEVAPSLFMVDVRKAAGETLEYHKFYKKLCSKLENIIWRATEGIPKSEILRTITF [K40N]

From IntAct's records for PubMed 17785451
